According to the DeepSol protein solubility set:

Assay: soluble on expression in E. coli; label from the status in PepcDB or PDB records

| Sequence | soluble on expression in E. coli |
| --- | --- |
| MRQVDFSPFYRSTVGFDHLFNWFDSRTQPDDVSSYPPYNIERLSEDSYRISMAVAGFSQDEIDIETHCNQLIVRGERKPENDDEEREFLYRGIASRAFERRFHLADHVKVIGAELGDGLLHIQLKREMPAELKPKKIVVQASSSAVKNGNDHAVRKVSLENERTE | not soluble |
| MAHHHHHHMLQRVLARLPGAPACISDPLHMRALLELIGYVEPGDNLNRVAYAGELHYPPQAHAFMAELLAEGRQRDGGDAFDAIRERRAGPGYAIDSATTSEVDDAIGVCVDGATGAKYFVVYVSDATVYCPFDSTLEQLTARRLTTTTYLPEGVFFMLPKPIVEAATLREDRPCRTFNVIFQIDESTGEVKNYSVAVGWLDQLRRITYDQVQEIVNKEEGKEEGDEHDSAAVVAAAHDTDASSSPPLLAGCADSAHPPPAWMTREDKDNLFYILRCARLRLRARLERQQRQQQQHHHGAGGKDCGDEGVPATPPVDFSLPDPLIEVKGTKVLSVTDQVISTQDARLAVAELMIAANEVCSRVAQANHIAMPFRGTRTLSSDHLVAHYYTEPEGVRTLMSLDASHIFLAEAMQSSVRRLSTVTRAIYHHVPLHHAGLDTTFYTHSTSPLRRYADMLVHHQLKTWLWQQRRGGGSSDHTSATSTSAARAAMVAAPQQLIPEHAMASLCTMISAKQERASLLQDNSTRFWILRYLEDLERASANAAAAARGDGDGDTHRKKTYLCLVGETRRVVAAPAYSRFACSSAEMSQLLSLPLTAPSTTSSTVRRPASLQMDAVARWRQETPEFTYVSDVYIPEVQLAHTITHHRDDVLVGAVLECHITRVQPTQGVLELAIERVLPGGDERHYERLWMGGFVSQLDA | not soluble |
| MADNKITFFGKCDGISVEQLIRYSRFNMNVKHFHNQYEIFYIIEGERQFFFDNKSYNAYAGDIAILDTNLVHTTCSISDEDKGYNRVILYIDYEKMCDFDKKYPGLNLVNYFHNNYGIYHLNEDQRIAFLNLYRDLRHELTKKNSGYQSRVEIATIYWLYKLLSLKHDSTQIHAVINSPKE | not soluble |
| MVRIRRAGLEDLPGVARVLVDTWRATYRGVVPEAFLEGLSYEGQAERWAQRLKTPTWPGRLFVAESESGEVVGFAAFGPDRASGFPGYTAELWAIYVLPTWQRKGLGRALFHEGARLLQAEGYGRMLVWVLKENPKGRGFYEHLGGVLLGEREIELGGAKLWEVAYGFDLGGHKW | soluble |
| PQEVESYVHRIGRTGRAGKEGTAITFITPQEYRRLLQIQKAVKKEIKKEKLPDVKDVIQAKKFRIIDDIGQILIDNDYDKFKKLAKDLLKMEDAENIVASLLKLSYSDVLDESNYNEISPVKMEDTGKTRLFIAMGRKDGMTPK | not soluble |
| MAHHHHHHMIRKIIILMFTFFSNIHNEKIYHHKQRRKFLKGPLGYLNRNVIQKKHYNLYAKKFINYKEIQIQRINDYRKRSGVDKNNINYNLRDTYNYHETHLFVRNEVLPTLAKIENENLKEKEKNKEIFRNINDYNSNFTRQTFLQFLMDLYNIFLKIDDLFLENKTYFSILIYNGPMQLTNHLYDDIIYVSSVVENSDDVSPSEYCMEYISHLENLCEENKLSFLAHAYVFYKNFHLSKEHLLKSICKYLNIIKKLKSSTYVADVENFEVSQKCFLHLLFCLNKMSRKWSRWEKDNFLASLHNATNKMMILTKHFEKVKS | not soluble |
| MAHHHHHHMSDEGFEDLFILDTDPEELYEELGPIGVGNYGSVIKARNRHTQEITAIKLVLLVDKDERDFVQREISILKHCRHPNIVHYYGAHKSLSKLWIVMEYCEGGSIDMVYKVLRHPLPEPLIAYVCRQVLLGLQYLHANRKIHRDIKGGNILLTRDGGVKLADFGVSTELSHSLSRRNTFVGTLLWMAPEAILELDYDEKADLWSLGITLIEMAEGAPPYIDTHPARALFMIPKMDPPSLQDKERWSPQMTLFLKRLLTKDHNARPTATTMLNDPFVLPENIGTQEQLKAVIDEVLAKKASIDPQRMRDYTDSSATFVERTSSDGGGGDDHSTDSRDEVQPHLTAKGLTNAPANSIEALDGAGTHLFFQDGTLLPLPMLYTQDISFDELCVGEELNGPFSLPVPSVESLLVPPEQQSTACHGGEALAHTMHVTAKLKEMLYYHKQLPYCRGLTDAEAAKSREMQLKYGSVLKSVYRL | not soluble |
| GSHMLEMRIGHGFDVHAFGGEGPIIIGGVRIPYEKGLLAHSDGDVALHALTDALLGAAALGDIGKLFPDTDPAFKGADSRELLREAWRRIQAKGYTLGNVDVTIIAQAPKMLPHIPQMRVFIAEDLGCHMDDVNVKATTTEKLGFTGRGEGIACEAVALLIKATK | soluble |
| MSLAEITDRDTALFESGIKLGALYHQFVGSPVNLSTAGSLEAAIRDSISLQPCVQSITVAIDREMVRGRINDFGYCELEGRMLGVEAVIRYGTAVVHVGMRYDAEMDYPMMSVQQIEQIGQIRQIEQDKQTEQIRQIRQTEVGEGHHHHHH | soluble |
| MVPAAENLSPIPASIDTNDIPLIANDLKLLETQAKLINILQGVPFYLPVNLTKIESLLETLTMGVSNTVDLYFHDNEVRKEWKDTLNFINTIVYTNFFLFVQNESSLSMAVQHSSNNNKTSNSERCAKDLMKIISNMHIFYSITFNFIFPIKSIKSFSSGNNRFHSNGKEFLFANHFIEILQNFIAITFAIFQRCEVILYDEFYKNLSNEEINVQLLLIHDKILEILKKIEIIVSFLRDEMNSNGSFKSIKGFNKVLNLIKYMLRFSKKKQNFARNSDNNNVTDYSQSAKNKNVLLKFPVSELNRIYLKFKEISDFLMEREVVQRSIIIDKDLESDNLGITTANFNDFYDAFYN | soluble |
| SPDEIAQVRFLIVGRTGWIANMVAELLEQRGERYAFASFRLEQREACERELDALRPQRVLNVLGSLGVRTSTGARTTGARPSAVTYWAC | soluble |
| ATLKQLDGIHVTILHKEEGAGLGFSLAGGADLENKVITVHRVFPNGLASQEGTIQKGNEVLSINGKSLKGTTHHDALAILRQAREPRQAVIVTRKLTPEAMPDLNS | soluble |
| MNLITDETLVEPNLPTFEELTRVHDRKYLKSVRNPIKAAQIVEIPFVGCLPPCIIESKLLHPLRLQAGGTVLAANLALKHGWAINVGGGFHHASHSGGGGFCFYADITMAIFDLFDKKAIANAIVVDLDAHQVLEKTFERI | not soluble |
| MDREALLQAVKEARELAKPRNFTQSFEFIATLKEIDMRKPENRIKTEVVLPHGRGKEAKIAVIGTGDLAKQAEELGLTVIRKEEIEELGKNKRKLRKIAKAHDFFIAQADLMPLIGRYMGVILGPRGKMPKPVPANANIKPLVERLKKTVVINTRDKPYFQVLVGNEKMTDEQIVDNIEAVLNVVAKKYEKGLYHIKDAYVKLTMGPAVKVKKEKAKKK | soluble |
| MSLLNENDIEQLTLQRLQSLGWEYRYGKDLPVHEGKFARGDLSGVVFVEQLREAVRKLNPQLPESAVDSVVKSATKSDIGDLVVRNQTFYKLLRDGVRVEYTQNGEQKIEMVRLVDFEHWGNNRFVAVNQLEIRSRKGGKRIPDIIGFVNGLPLVVFELKNPLRESADLLQAFNQFETYKDEIAELFVYNQALIISDGIVARLGSLSADFQRFTPWKVVDEKNKSARLYFDDELQSLLNGLMQPEDLLDYIRYFVLFERDSVGKTIKKIAAYHQYYGVNEAVDSTIWATSEKGDRRIGVMWHTQGSGKSISMLFYAGKLLAQPELKNPTIVVVTDRNDLDGQLFQTFSSGKDLIKQTPQQVEDRDQLRQLLAQNEVGGVFFTTIQKFALNEEESRFPILNERNNIIVISDEAHRSQYGFTQKLHNGKFQTGYARHLRDALPNASFIGFTGTPISLEDKDTQDVFGRYVSIYDLQDAVEDGATVPIVYDDARQIRLNKKDHDALFAEIDALLEEEPSTSLRLREKLLGSQERLIELAADFVQHFAKRNEVVDSKAMMVVSSRQICVDLYNQIIALHPEWHSDNINEGAIKIVMTGSASDTPEMQKHIYSKQEKQTLERRFKDPNDPLKVVIVRDMWLTGFDAPCCNTMYLDKPMKGHNLMQAIARVNRVFANKSRENGGLIVDYVGLAKELRAATQQYTNSTGKGQLAEDVQSVFFKMKEQLEFIRTLFATPIEGKTFDVQAALEKDNPNDLLMAIRFAANHILSLDQLSFDGKAHEQHWFNKKETEPRKKAFLKTAGLVKKGYMLCGTLAEVEPYNQEIAFYDAVRAILTKREQKGTGTNERQILLKKLVNQTVYSEGVIDLFDLLEKPQPQISLLSEEFLQTVKNSPTKNLWVSAMERYLASEIKVKSGTNLTLQKDFERRLKEALNQYHNHNLTVVEILDELFKMSQDFQERLALGKKLGLTKEELAFYEALSQNQSAKDLMGDEVLSKLAKEITETLRKSVTIDWQYKEAVRARIRLLVRRALQKYKYPPDKQEEAVTYVIKQAEEIAEDLTGLEGHHHHHH | soluble |
| MNKRVQAFLAKMQEKELDGIIINNLKNVYYLTGFWGSNGTVFISRDRQVLVTDSRYIIAAKQETSGFEIVADRDELAVIAGIVKDMGLTRIGFEDEISVSYYHRMQAAFAGLNLLPQTQFVEGLRMIK | not soluble |
| QVQLQQSGTELVKSGASVKLSCTASGFNIKDTHMNWVKQRPEQGLEWIGRIDPANGNIQYDPKFRGKATITADTSSNTAYLQLSLTSEDTAVYYCATKVIYYQGRGAMDYWGQGTTLTVS | soluble |
| MGSDKIHHHHHHMSHPEPYFQCNDPALSPAERANWIAVLPLGAHEQHGPHLPFETDTIIAQGVVDRLILALPDTLPVTFLPVEPVGYSVEHMDVFGTRTLTFNEAVERWLGIAETLSGQGIRKLMMLNAHGGNSPLMTVVATEARIRFSMLAVATSWTRFGQPDGLIRPEDKAIDIHGGDIETSVMLALRPDLVAMDKAQNFSSRQSEFAARFTHLRAYGPHAFGWKMADLNPLGVAGNASVATAEKGENLLSHAVHGLVELLWDIHDFDIEKAFELPPHSSYMG | not soluble |
| MSLKLPDEEFKLALEVARARIKAKDKFSRSDLWFDLEGLRYATHEVVADYRGRRLKGQGVKSIADVSCGVGIQLIFFAKHGIRSVGIDIDPIKIEFAKRNAEKYGVEVEWVVGDALSPEIIEKVDAEVIFSDPARPPEVPERNLEDLLPSPLKIYEAYKHKTDSFIFDLPPQIRREKVPWKGEFEYIDLFGHVNRLTEGHHHHHH | not soluble |
| MSLDKRYIIAEIKVSIVKTQSAGADYTDHAAGHWINDTIIANPMSVYNDFQHSRSAWGMDVLKGIFIEVTTESGHQGYATAYGGYISSWIIKNHLNRFLIGADARNLSKLYDQMYRASIPYSGQNGVVINTIAGIDLALWDLIGKVRQEPVYMMIGGKVREKLQTYVTGPEAKLAQDWGHVGSKIPLPYGPGDGIVGLKKNQEYIMETRKQVGSDYRLMVDCYMSLDVPYAIDLANAVKEANLYWIEEALPPHDLESHKHIKDACPWQKWTTGEHTNSRYGFRNLIRDRSVDILQPDLTLCGMTETLRIAAMASAYDITVIPHCSGVYAYNFGIASTLTPFNEFINLHPKATEVVPIFGKMFTNEPVPIKGEVTLTDLPGFGAELNKEVELEEIEGHHHHHH | soluble |
| MAHHHHHHMVLYIIGLGLGDEKDITIKGKELIEKSDVVYLETYTSILFVSKDVLEETYKKSIEEVDRDFAEENCDKILDEAKNKKVSFLVVGDPLCATTHHDIILRAKKKNIDVEIIHNTSIISAIGECGMQLYNFGQIVSIPYFEDNYKPTSYYDKIYINLKNNFHTLCLLDIKVKERTVENIMRNKKIYEPPRFMTINDSIEQLLYCEHIHKKNIITKNTLGIAIIQIGTDNQQIISGDLLTLKDISYNKPLHSLIICAPTLHDIEKEYFDLYHYNNMKK | not soluble |
